Data taken from article PMC9741652 (2022).
Read-outs that look alike come from different tables or passages of the source. Blank lines part the entries; values can stand above or below the binder they belong to.

Key:
Test in all cases: ITC
[1] = biological target: T1, ZER1 (residues 469–766) (human, UniProt Q7Z7L7 469-766)
T1 chain: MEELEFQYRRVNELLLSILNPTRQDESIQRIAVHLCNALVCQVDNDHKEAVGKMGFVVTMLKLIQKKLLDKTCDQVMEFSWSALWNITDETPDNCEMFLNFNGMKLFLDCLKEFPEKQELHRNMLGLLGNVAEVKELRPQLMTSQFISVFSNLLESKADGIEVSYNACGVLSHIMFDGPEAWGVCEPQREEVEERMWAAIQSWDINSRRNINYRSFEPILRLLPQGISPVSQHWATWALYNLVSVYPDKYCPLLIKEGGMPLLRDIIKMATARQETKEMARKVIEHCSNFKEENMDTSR

[2] = biological target: ZYG11B (residues 490–728) N523A (UniProt Q9C0D3 490-728, N523A)
ZYG11B (residues 490–728) N523A, sequence (Q9C0D3 other isoform, or with tags, fused parts or gaps N523A | N523A): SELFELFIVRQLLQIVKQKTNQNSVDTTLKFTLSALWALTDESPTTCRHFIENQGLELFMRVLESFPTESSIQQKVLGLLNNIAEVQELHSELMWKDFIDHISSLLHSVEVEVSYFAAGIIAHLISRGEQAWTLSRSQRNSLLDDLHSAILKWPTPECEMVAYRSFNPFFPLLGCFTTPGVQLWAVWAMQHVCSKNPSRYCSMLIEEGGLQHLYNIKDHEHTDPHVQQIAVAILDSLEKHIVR

[3] = biological target: ZYG11B (residues 490–728) (UniProt Q9C0D3 490-728)
ZYG11B (residues 490–728), sequence (Q9C0D3 other isoform, or with tags, fused parts or gaps): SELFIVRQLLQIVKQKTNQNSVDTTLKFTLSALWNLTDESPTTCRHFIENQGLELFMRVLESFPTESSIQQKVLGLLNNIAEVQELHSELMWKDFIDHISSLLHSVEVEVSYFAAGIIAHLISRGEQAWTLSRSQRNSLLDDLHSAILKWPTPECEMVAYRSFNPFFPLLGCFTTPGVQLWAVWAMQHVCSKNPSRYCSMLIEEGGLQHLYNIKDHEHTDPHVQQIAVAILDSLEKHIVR

[4] = biological target: T2, ZER1 (residues 469–766) N553A (human, UniProt Q7Z7L7 469-766, N553A)
T2 sequence (Q7Z7L7 other isoform, or with tags, fused parts or gaps N553A | N553A): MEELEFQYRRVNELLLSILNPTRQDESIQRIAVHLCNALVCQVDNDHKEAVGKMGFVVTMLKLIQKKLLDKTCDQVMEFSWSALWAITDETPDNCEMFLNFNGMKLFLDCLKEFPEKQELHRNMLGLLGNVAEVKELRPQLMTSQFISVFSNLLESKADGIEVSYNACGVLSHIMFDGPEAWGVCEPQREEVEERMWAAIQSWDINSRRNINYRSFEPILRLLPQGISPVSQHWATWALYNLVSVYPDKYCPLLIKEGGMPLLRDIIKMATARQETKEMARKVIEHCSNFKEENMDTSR

[5] = biological target: T2, ZER1 (residues 469–766) N553A; remark: listed apart in the source
[6] = biological target: T1, ZER1 (residues 469–766)

Kd [1]: 1.6 µM
B1: AFLHVGQD peptide (peptide)
peptide: AFLHVGQD
modifications: Printed N-terminus MEEL is read as start Met plus native residues from 469 (by analogy with SELF in ZYG11B); C-terminal His tag of pNIC-CH left out

Kd [2]: > 50 µM
Binder: AFLHVGQD

Kd [3]: 2.5 µM
B2: GFLHVGQD peptide (peptide)
peptide: GFLHVGQD
modifications: Printed N-terminus SELF is read as vector Ser plus native E490-L491-F492 (numbering from the 7XYW entity, 485-728 starting AQLGTELF); His-SUMO tag left out

Kd [4]: 7.6 µM
B3: AFLHVGQD peptide (peptide)
peptide: AFLHVGQD
modifications: N-terminus MEEL read as start Met plus native residues from 469; His tag left out

Kd [5]: 7.1 µM
B4: SFLHVGQD peptide (peptide)
peptide: SFLHVGQD
modifications: N-terminus MEEL read as start Met plus native residues from 469; His tag left out

Kd [1]: 4.2 µM
B5: GFLHVGQD peptide (peptide)
peptide: GFLHVGQD
modifications: Printed N-terminus MEEL is read as start Met plus native residues from 469 (by analogy with SELF in ZYG11B); C-terminal His tag of pNIC-CH left out

Kd [3]: 7.1 µM
B6: AFLHVGQD peptide (peptide)
peptide: AFLHVGQD
modifications: Printed N-terminus SELF is read as vector Ser plus native E490-L491-F492 (numbering from the 7XYW entity, 485-728 starting AQLGTELF); His-SUMO tag left out

Kd [3]: 6.8 µM
B7: SFLHVGQD peptide (peptide)
peptide: SFLHVGQD
modifications: Printed N-terminus SELF is read as vector Ser plus native E490-L491-F492 (numbering from the 7XYW entity, 485-728 starting AQLGTELF); His-SUMO tag left out

Kd [3]: 3 µM
B8: CFLHVGQD peptide (peptide)
peptide: CFLHVGQD
modifications: Printed N-terminus SELF is read as vector Ser plus native E490-L491-F492 (numbering from the 7XYW entity, 485-728 starting AQLGTELF); His-SUMO tag left out

Kd [2]: 2.9 µM
Binder: CFLHVGQD

Kd [1]: 3.9 µM
B9: CFLHVGQD peptide (peptide)
peptide: CFLHVGQD
modifications: Printed N-terminus MEEL is read as start Met plus native residues from 469 (by analogy with SELF in ZYG11B); C-terminal His tag of pNIC-CH left out

Kd [1]: 3.1 µM
B10: TFLHVGQD peptide (peptide)
peptide: TFLHVGQD
modifications: Printed N-terminus MEEL is read as start Met plus native residues from 469 (by analogy with SELF in ZYG11B); C-terminal His tag of pNIC-CH left out

Kd [2]: 4.9 µM
Binder: SFLHVGQD

Kd [1]: 1.3 µM
B11: SFLHVGQD peptide (peptide)
peptide: SFLHVGQD
modifications: Printed N-terminus MEEL is read as start Met plus native residues from 469 (by analogy with SELF in ZYG11B); C-terminal His tag of pNIC-CH left out

Kd [4]: 7.9 µM
B12: TFLHVGQD peptide (peptide)
peptide: TFLHVGQD
modifications: N-terminus MEEL read as start Met plus native residues from 469; His tag left out

Kd [6]: 3.8 µM
B13: free H2A peptide (sequence: SGRGKQGGKA) (peptide)
peptide: SGRGKQGGKA
modifications: Printed N-terminus MEEL is read as start Met plus native residues from 469 (by analogy with SELF in ZYG11B); C-terminal His tag of pNIC-CH left out
